B1: Lym-1 (antibody, V domains shown)
VH: QLKESGPGLVAPSQSLSITCTISGFSLTSYGVHWVRQPPGKGLEWLVVIWSDGSTTYNSALKSRLSISKDNSKSQVFLKMNSLQTDDTAIYYCASHYGSTLAFASWGHGTLVTVSA
VL: DIQMTQSPASLSASVGETVTIICRASVNIYSYLAWYQQKQGKSPQLLVYNAKILAEGVPSRFSGSGSGTQFSLKINSLQPEDFGSYYCQHHYGTFTFGSGTKLEIK
B2: Lym-2 (antibody, V domains shown)
VH: EVQLEESGGGLVQPGGSMKLSCVASGFTFSNYWMNWVRQSPEKGLEWVAEIRFKSHNYATHFAESVKGRFTISRDDSKSSVYLQMNNLRAEDTGIYYCTRRIGNSDYDWWYFDVWGAGTSVTVSS
VL: DIVMTQSHKFMSTSVGDRVSVTCKASQNVGNNVAWYQQKPGQSPKVLIYSASYRYSGVPDRFTGSGSGTDFTLTISNVQSEDLAEYFCQQYNTYPFTFGSGTKLEIK

Columns and labels:
[1] = target: HLA-DR on human cells (human); assay: avidity constant on tonsil lymphocytes
[2] = target: HLA-DR on human cells (human); assay: avidity constant, Scatchard plot analysis on the target tumor cell line (ARH-77)

| Binder | Ka [1] [M⁻¹] | Ka [2] [M⁻¹] |
| --- | --- | --- |
| B1 | 8.8e+07 | – |
| B2 | 1.23e+08 | 2.33e+08 |

From patent US20200016201A1
